The target in the assay is T1, restricted (IL4 independent) hIL13 receptor (human, UniProt Q14627 27-380).
T1 construct: whole, on cells; also called restricted receptor; restrictive receptor
T1 sequence (looked up): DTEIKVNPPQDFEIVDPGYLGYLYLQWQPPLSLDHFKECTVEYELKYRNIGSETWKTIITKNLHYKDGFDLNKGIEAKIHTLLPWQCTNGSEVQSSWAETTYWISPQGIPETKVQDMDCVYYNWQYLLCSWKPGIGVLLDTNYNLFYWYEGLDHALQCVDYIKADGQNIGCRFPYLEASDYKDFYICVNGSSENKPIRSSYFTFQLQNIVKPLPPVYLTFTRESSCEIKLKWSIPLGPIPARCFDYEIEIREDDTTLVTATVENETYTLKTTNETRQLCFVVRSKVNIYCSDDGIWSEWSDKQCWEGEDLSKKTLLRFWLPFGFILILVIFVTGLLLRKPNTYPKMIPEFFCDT
Description: autoradiography competition on GBM tissue sections against ^125I-hIL13.E13Y.
Description: Serial tissue sections were cut (10 mm) on a cryostat, thaw-mounchrome alumme-alum coated slides, and stored at 4° C. until analyzed. […] To dissociate non-specifically bound radioligand, sections were rinsed in four consecutive changes (5 minutes each) of ice-cold 0.1 M PBS. […] After drying, labeled sections were apposed to Kodak autoradiography film at −65° C. for 8 hr to 11 days.

B1: recombinant hIL4 (human interleukin 4) (ligand, UniProt P05112 25-153, looked up)
chain: HKCDITLQEIIKTLNSLTEQKTLCTELTVTDIFAASKNTTEKETFCRAATVLRQFYSHHEKDTRCLGATAQQFHRHKQLIRFLKRLDRNLWGLAGLNSCPVKEANQSTLENFLERLKTIMREKYSKCSS
Regarding B1, the binding result is given as “no binding (tested: 100- to 500-fold molar excess)”.

The record behind these values is patent publication US20020159972A1 (PENN STATE RESEARCH FOUNDATION, published 2002).
